These results are taken from the RNAGym collection of RNA variant scans (doi:10.7554/elife.90254).

First the molecules themselves.
B1: OR4K15 (parent)
chain: GUUAACGGUCAUAGGCCAUGGAAACUAGGAGCACCAUUUCGCUGCCAGUGAAGAAAUGAACAAAGAAAAUCUGGGCCAGGCAGGCAUCAAAAGAAAUAGUCUUGCGCUCAACCAGAAAGUCUGUAAUCAUUUUAAGGGUA

The variants in the data set derive from B1. The data set can be described thus: self-cleavage, relative activity (ratio to wild type); higher = more cleavage; in vitro, sequencing; the parent is a self-cleaving ribozyme.
As to A5G C128G, the self-cleavage was 0.8. For the variant U3A A4G, the self-cleavage is 1.4. Regarding A4C U100C, the self-cleavage is 1.19. With A5G A86U, the self-cleavage turned out to be 1.27. A5G A86G: the self-cleavage was found to be 0.63. On to U3C A23G, for which the self-cleavage came to 1.22. A5G G21A: the self-cleavage amounted to 1.23. In the case of U3C U103C, the self-cleavage came out at 1.12. In the case of U2C C45G, the self-cleavage stood at 1.29. Regarding A4G G65C, the self-cleavage turned out to be 1.18. U2C A94U: the self-cleavage was 1.48. As for U2C A94G, the self-cleavage came out at 1.08. Consider A4G U70A, for which the self-cleavage was determined as 1.14. With U3C A89C, the self-cleavage was determined as 0.91. Take U2C A91G: the self-cleavage was 1.08.

Take U2C A91U: the self-cleavage was 0.81. Take A5C A117U: the self-cleavage was 0.56. Turning to A4G A114C, the self-cleavage came to 0.17. Consider A5G A135G, for which the self-cleavage is 2.3. For U3A A30G, the self-cleavage was 0.63.

As to U2G A56G, the self-cleavage came out at 1.23. On to U2C A114U, for which the self-cleavage was found to be 0.09. Consider A4U U108C, for which the self-cleavage came to 0.09. The value for A4U A56G was 0.98; that for A4G U43A was 1.26; that for A4G U43G was 0.55. The value for U3C A51G was 1.12; that for A4G U38C was 1.15; that for A5G C88U was 1.02. A5C A110G: the self-cleavage amounted to 0.33. In the case of U3C A54C, the self-cleavage was 0.51. For A4G C10U, the self-cleavage was 0.76. For the variant A4G A36U, the self-cleavage is 0.79.

Consider U2G A59G, for which the self-cleavage stood at 0.81. The value for A5G G15U was 0.82; that for U2C G53A was 1.18.

Consider A4G U39C, for which the self-cleavage is 1.46. Consider A4G U39G, for which the self-cleavage worked out at 1.88. Turning to U3C U19C, the self-cleavage came to 1.88. As for U3C A114G, the self-cleavage came out at 0.47. With A5C A111G the figure was 0.16. A4G A90G: the self-cleavage amounted to 1.11. As for A4G A33U, the self-cleavage stood at 0.59. For U3C U43A, the self-cleavage is 1.31. As to U2C A111G, the self-cleavage was found to be 0.04. Regarding A4G U19A, the self-cleavage stood at 0.78.

As to A4G U19C, the self-cleavage was 1.78. For the variant U2C A78G, the self-cleavage was 0.21. For the variant A4G A24C, the self-cleavage came out at 1.03. With U3C A47G the figure was 1.39; with U3C A47U, 0.68. A5C A95G: the self-cleavage came out at 0.99. U2C G83A: the self-cleavage is 0.87.

A5G G119U: the self-cleavage was determined as 1.44. On to U2C U72C, for which the self-cleavage was determined as 0.15. Turning to U2C U72A, the self-cleavage turned out to be 0.1. For the variant U3G A51G, the self-cleavage is 1.72. Consider A5G A96G, for which the self-cleavage came out at 1.21. With U2C G106A, the self-cleavage came out at 0.03. For the variant A4G U87C, the self-cleavage was 1.14. For the variant U3C C25U, the self-cleavage was 1.05.

Regarding U3C U131C, the self-cleavage worked out at 0.51.

Take U2C A117U: the self-cleavage is 1.05. The value for A4G A18U was 1.25; that for U3A U37C was 0.99; that for A5G A92U was 0.95. Take A5G A111G: the self-cleavage stood at 0.08.

On to U3A A118G, for which the self-cleavage turned out to be 0.9. For U3C A92G, the self-cleavage was found to be 1.48. For U3A A67U, the self-cleavage is 0.46. Take A5G G29C: the self-cleavage was found to be 0.82. Turning to A5C A47G, the self-cleavage amounted to 1.1. With A4G A78U the figure was 0.63; with A5C A66G, 2.49. With A5G A110G, the self-cleavage was 0.15. As to A5G A66G, the self-cleavage was found to be 0.87.

A5G G65A: the self-cleavage is 0.9. For U3A G74A, the self-cleavage stood at 0.39. A5C U108A: the self-cleavage was 0.07. The value for U2G A135U was 1.03. For A5G A78G, the self-cleavage was 0.43. As for A5G A78U, the self-cleavage stood at 0.46. As for U2C G119A, the self-cleavage was 1.05.

Regarding U2G A96U, the self-cleavage was 0.84.

In the case of U2C U97C, the self-cleavage was determined as 0.55. As to U3C G74U, the self-cleavage came out at 0.15. In the case of A4G A134G, the self-cleavage is 0.91. On to U3C U102A, for which the self-cleavage is 0.38.

As for A5G U9C, the self-cleavage came to 0.82. Take U3A A27G: the self-cleavage stood at 1.25. As for U3C G28U, the self-cleavage was 2.64.

As to U3C A117U, the self-cleavage turned out to be 1.02. As to A5G C113U, the self-cleavage amounted to 0.16. For U3A A78G, the self-cleavage was found to be 0.14.

As to A5G A30U, the self-cleavage was 1.14. On to A5G A63G, for which the self-cleavage came to 1.21. For the variant A4G U120A, the self-cleavage worked out at 1.62. As for U3G A5C, the self-cleavage came to 1.53. For A4U U127C, the self-cleavage was 1.34. For A5G G137A, the self-cleavage stood at 0.6. U3C A94G: the self-cleavage worked out at 2.02. With A4G A96G the figure was 1.4. With A4G A96C the figure was 0.67; with U3A A47C, 1.17; with U3A A96G, 1.18.

Turning to A4G A52U, the self-cleavage came out at 0.92. Regarding U3C U100C, the self-cleavage amounted to 1.71. In the case of U2C A90G, the self-cleavage worked out at 0.54. In the case of U2C A90C, the self-cleavage is 1.23. In the case of U3A U57C, the self-cleavage was determined as 1.14. Turning to A4G A60U, the self-cleavage is 1.76. On to A5G A140U, for which the self-cleavage came to 1.38. As for A5C A56G, the self-cleavage stood at 1.05. With U3A A68G, the self-cleavage came out at 2.27. In the case of A4U U57C, the self-cleavage worked out at 0.65. As for A4U U57A, the self-cleavage amounted to 1.53. For the variant U2C C105U, the self-cleavage was 0.03. The value for U3C A60C was 0.91.

U2C G21A: the self-cleavage worked out at 0.98. For the variant A5G A36U, the self-cleavage is 1.13. For A4G C121A, the self-cleavage amounted to 2.03. For the variant U3C A33G, the self-cleavage was 0.79. Regarding U2C U122G, the self-cleavage was found to be 1.35. As to U2C U122C, the self-cleavage was 0.25. The value for U2G A62G was 0.65; that for A5C C105U was 0.08. U3C A134U: the self-cleavage stood at 0.67. The value for A4G A118G was 1.01; that for U2C U100C was 1.61.

For A5G A126G, the self-cleavage stood at 0.69. As to U3C U72C, the self-cleavage was found to be 0.25.

For U3C A135G, the self-cleavage is 0.99. Take U3C A36G: the self-cleavage came out at 1.39. In the case of U3C A36U, the self-cleavage came to 1.33. The value for A5G A62G was 0.59; that for U3C A55G was 1.1.

U3C U132A: the self-cleavage was 1.58. The value for U3A A60U was 1.71. For the variant U3A A95G, the self-cleavage came to 1.42.

In the case of U2C C76U, the self-cleavage was found to be 0.23. Consider U3G U9A, for which the self-cleavage amounted to 0.99. Take A4G G41A: the self-cleavage came out at 1.43. For the variant U2C A135G, the self-cleavage stood at 1.32. As for A4U U72A, the self-cleavage is 0.28. As for A5C A18G, the self-cleavage was found to be 1.02. Consider A4G A89G, for which the self-cleavage turned out to be 1.34. On to U3A A11G, for which the self-cleavage worked out at 1.03. With A5G A68G, the self-cleavage amounted to 0.89. As to U3C U26A, the self-cleavage worked out at 1.76. U3C A69G: the self-cleavage worked out at 1.6. For U2C G41A, the self-cleavage was determined as 1.29. In the case of U3G A24G, the self-cleavage is 0.8.

U3C G119A: the self-cleavage stood at 1.44. As for U3C G119U, the self-cleavage came out at 0.99. Regarding A5G A55G, the self-cleavage worked out at 1.15. On to U2C G104C, for which the self-cleavage was 0.1.

Regarding A4G A56G, the self-cleavage was found to be 1.02. Take A5G A52C: the self-cleavage was determined as 1.39.

Regarding A5G A52G, the self-cleavage came to 1.07. With A4G A13G the figure was 1.27; with U3A A55C, 1.31. Turning to U2C A66U, the self-cleavage turned out to be 0.2.

As for U2C A66G, the self-cleavage stood at 1.45. In the case of U2C U39A, the self-cleavage worked out at 1.17.

Regarding U2C U39C, the self-cleavage turned out to be 0.7. For the variant U2C U39G, the self-cleavage was 1.43. Take A5C C17U: the self-cleavage was determined as 0.39.
